For 53 molecules, Kd results are on record in article PMC9352680, “A comprehensive thermodynamic model for RNA binding by the Saccharomyces cerevisiae Pumilio protein PUF4”.

T1: PUF4 RNA-binding domain (Saccharomyces cerevisiae, UniProt P25339 537-888)
T1 sequence: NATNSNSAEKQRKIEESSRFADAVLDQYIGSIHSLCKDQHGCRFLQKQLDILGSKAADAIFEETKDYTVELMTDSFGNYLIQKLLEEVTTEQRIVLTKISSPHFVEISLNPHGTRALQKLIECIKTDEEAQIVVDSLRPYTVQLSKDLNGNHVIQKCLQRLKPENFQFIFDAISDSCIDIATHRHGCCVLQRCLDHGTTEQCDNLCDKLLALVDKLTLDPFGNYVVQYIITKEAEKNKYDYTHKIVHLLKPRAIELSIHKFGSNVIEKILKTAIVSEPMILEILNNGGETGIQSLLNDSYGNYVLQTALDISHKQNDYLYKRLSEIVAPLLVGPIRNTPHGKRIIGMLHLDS

B1: Id_ii_S2_P5E.2_K5.1_C5.2_[C-2G]_[T-1C]_H5.1_A5.1_F5.1_T5.2_[T11A]_[A12C] (ssRNA)
RNA: UUUGAUUAAUAUGAUAUCGUUCUUUCUGCUGUAUUAUUAACUUCUUUCUCGAUAUCAUAUUAAUCUUU
B2: Id_ii_S2_P5E.2_K5.1_C5.2_[C-2G]_H5.1_A5.1_F5.1_T5.2_[T11G]_[A12T] (ssRNA)
RNA: B1 RNA with C29U, A40G, C41U
B3: Id_ii_S2_P5E.2_K5.1_C5.2_[C-2G]_[T-1C]_H5.1_A5.1_F5.1_T5.2_[T11A]_[A12T] (ssRNA)
RNA: B1 RNA with C41U
B4: Id_ii_S2_P5E.2_K5.1_C5.2_[C-2T]_[T-1G]_H5.1_A5.1_F5.1_T5.2_[T11A]_[A12T] (ssRNA)
RNA: B1 RNA with G28U, C29G, C41U
B5: Id_ii_S2_P5E.2_K5.1_C5.2_[C-2G]_H5.1_A5.1_F5.1_T5.2_[A12C] (ssRNA)
RNA: B1 RNA with C29U, A40U
B6: Id_ii_S2_P5E.2_K5.1_C5.2_[C-2T]_[T-1C]_H5.1_A5.1_F5.1_T5.2_[A12G] (ssRNA)
RNA: B1 RNA with G28U, A40U, C41G
B7: Id_ii_S2_P5E.2_K5.1_C5.2_[C-2T]_[T-1A]_H5.1_A5.1_F5.1_T5.2_[T11A] (ssRNA)
RNA: B1 RNA with G28U, C29A, C41A
B8: Id_ii_S2_P5E.2_K5.1_C5.2_[C-2T]_[T-1C]_H5.1_A5.1_F5.1_T5.2_[A12C] (ssRNA)
RNA: B1 RNA with G28U, A40U
B9: Id_ii_S2_P5E.2_K5.1_C5.2_[C-2T]_[T-1A]_H5.1_A5.1_F5.1_T5.2_[T11G]_[A12T] (ssRNA)
RNA: B1 RNA with G28U, C29A, A40G, C41U
B10: Id_ii_S2_P5E.2_K5.1_C5.2_[C-2G]_[T-1C]_H5.1_A5.1_F5.1_T5.2_[A12C] (ssRNA)
RNA: B1 RNA with A40U
B11: Id_ii_S2_P5E.2_K5.1_C5.2_[C-2T]_[T-1G]_H5.1_A5.1_F5.1_T5.2_[A12T] (ssRNA)
RNA: B1 RNA with G28U, C29G, A40U, C41U
B12: Id_ii_S2_P5E.2_K5.1_C5.2_[C-2T]_H5.1_A5.1_F5.1_T5.2_[A12C] (ssRNA)
RNA: B1 RNA with G28U, C29U, A40U
B13: Id_ii_S2_P5E.2_K5.1_C5.2_[C-2G]_[T-1C]_H5.1_A5.1_F5.1_T5.2_[T11A] (ssRNA)
RNA: B1 RNA with C41A
B14: Id_ii_S2_P5E.2_K5.1_C5.2_[C-2T]_[T-1C]_H5.1_A5.1_F5.1_T5.2_[T11A]_[A12C] (ssRNA)
RNA: B1 RNA with G28U
B15: Id_ii_S2_P5E.2_K5.1_C5.2_[C-2T]_[T-1G]_H5.1_A5.1_F5.1_T5.2_[T11G]_[A12C] (ssRNA)
RNA: B1 RNA with G28U, C29G, A40G
B16: Id_ii_S2_P5E.2_K5.1_C5.2_[C-2T]_[T-1A]_H5.1_A5.1_F5.1_T5.2_[A12C] (ssRNA)
RNA: B1 RNA with G28U, C29A, A40U
B17: Id_ii_S2_P5E.2_K5.1_C5.2_[C-2T]_[T-1C]_H5.1_A5.1_F5.1_T5.2_[T11A]_[A12G] (ssRNA)
RNA: B1 RNA with G28U, C41G
B18: Id_ii_S2_P5E.2_K5.1_C5.2_[C-2T]_H5.1_A5.1_F5.1_T5.2_[T11G]_[A12T] (ssRNA)
RNA: B1 RNA with G28U, C29U, A40G, C41U
B19: Id_ii_S2_P5E.2_K5.1_C5.2_[C-2A]_[T-1G]_H5.1_A5.1_F5.1_T5.2_[T11A]_[A12T] (ssRNA)
RNA: B1 RNA with G28A, C29G, C41U
B20: Id_ii_S2_P5E.2_K5.1_C5.2_[C-2T]_[T-1C]_H5.1_A5.1_F5.1_T5.2_[A12T] (ssRNA)
RNA: B1 RNA with G28U, A40U, C41U
B21: Id_ii_S2_P5E.2_K5.1_C5.2_[C-2T]_[T-1A]_H5.1_A5.1_F5.1_T5.2_[A12T] (ssRNA)
RNA: B1 RNA with G28U, C29A, A40U, C41U
B22: Id_ii_S2_P5E.2_K5.1_C5.2_[C-2T]_[T-1G]_H5.1_A5.1_F5.1_T5.2_[T11A] (ssRNA)
RNA: B1 RNA with G28U, C29G, C41A
B23: Id_ii_S2_P5E.2_K5.1_C5.2_[C-2G]_[T-1C]_H5.1_A5.1_F5.1_T5.2_[A12T] (ssRNA)
RNA: B1 RNA with A40U, C41U
B24: Id_ii_S2_P5E.2_K5.1_C5.2_[C-2T]_[T-1G]_H5.1_A5.1_F5.1_T5.2_[A12C] (ssRNA)
RNA: B1 RNA with G28U, C29G, A40U
B25: Id_ii_S2_P5E.2_K5.1_C5.2_[C-2T]_[T-1C]_H5.1_A5.1_F5.1_T5.2_[T11A] (ssRNA)
RNA: B1 RNA with G28U, C41A
B26: Id_ii_S2_P5E.2_K5.1_C5.2_[C-2T]_H5.1_A5.1_F5.1_T5.2_[T11A] (ssRNA)
RNA: B1 RNA with G28U, C29U, C41A
B27: Id_ii_S2_P5E.2_K5.1_C5.2_[C-2T]_H5.1_A5.1_F5.1_T5.2_[A12T] (ssRNA)
RNA: B1 RNA with G28U, C29U, A40U, C41U
B28: Id_ii_S2_P5E.2_K5.1_C5.2_[C-2G]_H5.1_A5.1_F5.1_T5.2_[T11A]_[A12T] (ssRNA)
RNA: B1 RNA with C29U, C41U
B29: Id_ii_S2_P5E.2_K5.1_C5.2_[C-2T]_H5.1_A5.1_F5.1_T5.2_[T11A]_[A12T] (ssRNA)
RNA: B1 RNA with G28U, C29U, C41U
B30: Id_ii_S2_P5E.2_K5.1_C5.2_[C-2G]_H5.1_A5.1_F5.1_T5.2_[A12T] (ssRNA)
RNA: B1 RNA with C29U, A40U, C41U
B31: Id_ii_S2_P5E.2_K5.1_C5.2_[C-2T]_[T-1A]_H5.1_A5.1_F5.1_T5.2_[T11A]_[A12C] (ssRNA)
RNA: B1 RNA with G28U, C29A
B32: Id_ii_S2_P4E.4_K4.3_C4.2_[T-1C]_H4.3_A4.1_F4.1_T4.2_[G10A] (ssRNA)
RNA: UUUGAUUAAUAUGAUAUCGUUCUUUCUCCACACUAUUAAUUUCUUUCUCGAUAUCAUAUUAAUCUUU
B33: Id_ii_S2_P4E.4_K4.3_C4.2_[T-1A]_H4.3_A4.1_F4.1_T4.2_[G10C] (ssRNA)
RNA: B32 RNA with C29A, A39C
B34: Id_ii_S2_P4E.4_K4.3_C4.2_[T-1C]_H4.3_A4.1_F4.1_T4.2 (ssRNA)
RNA: B32 RNA with A39G
B35: Id_ii_S2_P4E.4_K4.3_C4.2_[T-1A]_H4.3_A4.1_F4.1_T4.2_[G10C]_[T11A] (ssRNA)
RNA: B32 RNA with C29A, A39C, U40A
B36: Id_ii_S2_P4E.4_K4.3_C4.2_H4.3_A4.1_F4.1_T4.2 (ssRNA)
RNA: B32 RNA with C29U, A39G
B37: Id_ii_S2_P4E.4_K4.3_C4.2_[T-1A]_H4.3_A4.1_F4.1_T4.2 (ssRNA)
RNA: B32 RNA with C29A, A39G
B38: Id_ii_S2_P4E.4_K4.3_C4.2_H4.3_A4.1_F4.1_T4.2_[T11C] (ssRNA)
RNA: B32 RNA with C29U, A39G, U40C
B39: Id_ii_S2_P4E.4_K4.3_C4.2_H4.3_A4.1_F4.1_T4.2_[G10C]_[T11G] (ssRNA)
RNA: B32 RNA with C29U, A39C, U40G
B40: Id_ii_S2_P4E.4_K4.3_C4.2_[T-1A]_H4.3_A4.1_F4.1_T4.2_[G10A]_[T11C] (ssRNA)
RNA: B32 RNA with C29A, U40C
B41: Id_ii_S2_P4E.4_K4.3_C4.2_H4.3_A4.1_F4.1_T4.2_[G10A] (ssRNA)
RNA: B32 RNA with C29U
B42: Id_ii_S2_P4E.4_K4.3_C4.2_[T-1A]_H4.3_A4.1_F4.1_T4.2_[G10C]_[T11C] (ssRNA)
RNA: B32 RNA with C29A, A39C, U40C
B43: Id_ii_S2_P4E.4_K4.3_C4.2_H4.3_A4.1_F4.1_T4.2_[G10T] (ssRNA)
RNA: B32 RNA with C29U, A39U
B44: Id_ii_S2_P4E.4_K4.3_C4.2_H4.3_A4.1_F4.1_T4.2_[G10C]_[T11A] (ssRNA)
RNA: B32 RNA with C29U, A39C, U40A
B45: Id_ii_S2_P4E.4_K4.3_C4.2_[T-1A]_H4.3_A4.1_F4.1_T4.2_[G10A] (ssRNA)
RNA: B32 RNA with C29A
B46: Id_ii_S2_P4E.4_K4.3_C4.2_[T-1A]_H4.3_A4.1_F4.1_T4.2_[G10T]_[T11A] (ssRNA)
RNA: B32 RNA with C29A, A39U, U40A
B47: Id_ii_S2_P4E.4_K4.3_C4.2_H4.3_A4.1_F4.1_T4.2_[G10T]_[T11A] (ssRNA)
RNA: B32 RNA with C29U, A39U, U40A
B48: Id_ii_S2_P4E.4_K4.3_C4.2_[T-1A]_H4.3_A4.1_F4.1_T4.2_[T11C] (ssRNA)
RNA: B32 RNA with C29A, A39G, U40C
B49: Id_ii_S2_P4E.4_K4.3_C4.2_H4.3_A4.1_F4.1_T4.2_[G10C]_[T11C] (ssRNA)
RNA: B32 RNA with C29U, A39C, U40C

Substitutions are numbered along the chain they refer to. Names and notes keep the numbering of the source.

This data set addresses T1, PUF4 RNA-binding domain. The experiment in a line: Mg; RNA-MaP; 20 mM Na-HEPES pH 7.4, 30 mM KOAc, 0.75 mM MgCl2, 0.1% Tween-20, 5% glycerol, 0.1 mg/mL BSA, 2 mM DTT; 25 C; 0.0125-409.6 nM protein. Particulars: tags: N-His6-TEV cleaved; C-SNAP kept, Cy3B-labelled; label: tethered on chip by stalled RNA polymerase.
Broadly, the Kd is the equilibrium constant for the complex coming apart. As to B1, binding was characterised by a dissociation constant (Kd) of 25.4 nM.
Then B2, with 3.05 nM; and B3, with 3.35 nM.
With B4 the figure was 1.41 nM.
Turning to B5, the Kd stood at 18.8 nM.
Molecule B6 yielded a Kd of 3.04 nM.
Then B7, with 12.2 nM.
With B8 the figure was 2.98 nM; with B9, 4.78 nM; with B10, 11.2 nM.
With B11 the figure was 1.42 nM.
On to B12, for which binding was put at a Kd of 1.86 nM.
In the case of B13, the affinity, expressed as Kd, was 7.06 nM.
With B14 the figure was 4.08 nM.
With B15 the figure was 2.9 nM; with B16, 4.16 nM; with B17, 51 nM.
With B18 the figure was 3.67 nM; with B19, 7.45 nM.
Turning to B20, binding was put at a Kd of 1.5 nM.
In turn, B21 yielded a Kd of 2.85 nM.
Then B22, with 1.72 nM.
Then B23, with 3.07 nM; and B24, with 1.84 nM; and B25, with 4.24 nM.
Then B26, with 5.96 nM; and B27, with 1.44 nM.
B28 showed a Kd of 3.86 nM.
Turning to B29, binding was characterised by a dissociation constant (Kd) of 3.17 nM.
With B30 the figure was 2.47 nM.
With B31 the figure was 8.24 nM; with UCUCUUUGUAUAAGUAUCUCUU (ssRNA) [Ic_S1_P5E.1_K5.1_C5.1_H5.1_A5.1_[T6A]_F5.1_[T8G]_T5.1], 54 nM; with UCUCUUUGUAAUAAUAUCUCUU (ssRNA) [Ib_S1_P5E.1_K5.1_C5.1_H5.1_A5.1_[T5A]_F5.1_[T8A]_T5.1], 17.8 nM.
Molecule UCUCUUUGUAUCAGUAUCUCUU (ssRNA) [Ib_S1_P5E.1_K5.1_C5.1_H5.1_A5.1_[T6C]_F5.1_[T8G]_T5.1] showed a Kd of 27.9 nM.
In the case of B32, the Kd was > 2300 nM.
As for B33, the Kd was > 2300 nM.
Then B34, with > 2300 nM.
Turning to B35, the Kd was > 2300 nM.
Then B36, with > 2300 nM; and B37, with > 2300 nM.
B38 gave a Kd of 1620 nM.
With B39 the figure was > 2300 nM; with B40, 2240 nM; with B41, 498 nM.
Then B42, with > 2300 nM; and B43, with 528 nM.
With B44, the Kd was determined as 471 nM.
With B45, the Kd was > 2300 nM.
Then B46, with 748 nM; and B47, with 459 nM.
Then B48, with > 2300 nM.
With B49 the figure was 563 nM; with UCUCUUUGUACUAAUAUCUCUU (ssRNA) [Ic_S1_P5E.1_K5.1_C5.1_H5.1_A5.1_[T5C]_F5.1_[T8A]_T5.1], 12.5 nM.
